# Laboratory results: PMC6781908
# B1: DDR-2: N141A (protein)
# parent chain: MKLLLYLFGVTFHSNTVVALELRECSHQLGMSNRKIRDEQISASSSFDLQSTGPQHARAHQESGSGAWCPKNQINSLSKEWLQISFSVDTVITSVETQGRFDDGRGMEYATAFKIQYWRPSLNAWASYKDDFELETIPANNDTEHAIRRHLDRAIIARRIRIVPVSNSTRTVCMRVEVFGCPFDDSLVFYNVDQGDLQSGISYHDFSYDGNLANSPHLTGGIGKLYDGEVGKNNVFVNHHKWVGWRRKRNGNVKLAFEFSELRNISGILIHTSNEFKKSAKAFSSATVLFSINGKDFSDTIVHFNNPEDTESEVPRWIRIPVNNRIAKVAKIRLNFGTDSDWLFISEVNFESNHTNIELLNDDVVIPDSVSYFSVTEHDDGTSMFAFIIFFFMFLIVAVIILTVLYRKREYRVKASSPSPNAKREILLTIDGNTIKHHVSPSTYQMARDNLQNALIEKMPMSPIISDYAEPDISVCSDVTANTPLLYGIDGPYDTQKRSNPLSSMVKYSDYGEVYCTTLPEIARDKLICVSRIGQGEFGEVDLCQLENRKVAVKKLHGISQADEFSFHREIRVLGSLKHPNVVEVVGVCTIQKPILCIMEYMENGDLKSYILKNPTIQTSQCISICTQLAAGLAYLESCNFVHRDIAARNCLVDGEGNVKIADFGMARSLYSQEYYKVEGKFVLPIRWMAWEALLLGKFSTASDVWGFGVTMWEIFSLCSEKPYSDMTDDDVVENLQSMSSTGSLKQVLSRPRMCPSKLYNEQILPCWNYESSRRPSFENVHLHLQSLVHTSPHIHF
# Experiments:
# [1] = GFP fluorescence in D-type motor axons; conditions: glycan lost; control: wild-type DDR-2::GFP
# [2] = anti-GFP IP, anti-phosphotyrosine blot (autophosphorylation) from worms; conditions: glycan lost; control: wild-type DDR-2::GFP
protein,measurement,setting,value
B1,localisation_or_trafficking,[1],no change
same,enzymatic_activity,[2],no change
